Assay results as given in patent US20170355766A1 (Xencor, published 2017).

T1: human FcγRIIb receptor protein (R&D Systems) (human, UniProt P31994 46-217)
T1 construct: Analyte injected over antibodies captured on a protein A/G chip (Biacore); also called CD32b
T1 sequence (looked up): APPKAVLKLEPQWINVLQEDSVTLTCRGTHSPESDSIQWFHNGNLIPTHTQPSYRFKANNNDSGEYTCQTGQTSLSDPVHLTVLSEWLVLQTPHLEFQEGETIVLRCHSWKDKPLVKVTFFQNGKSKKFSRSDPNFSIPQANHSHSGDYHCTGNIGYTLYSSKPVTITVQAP

B1: A327D/L328Y/I332E (antibody, human IgG1, kappa)
heavy: EVQLVESGGGLVKPGGSLKLSCAASGYTFTSYVMHWVRQAPGKGLEWIGYINPYNDGTKYNEKFQGRVTISSDKSISTAYMELSSLRSEDTAMYYCARGTYYYGTRVFDYWGQGTLVTVSSASTKGPSVFPLAPSSKSTSGGTAALGCLVKDYFPEPVTVSWNSGALTSGVHTFPAVLQSSGLYSLSSVVTVPSSSLGTQTYICNVNHKPSNTKVDKKVEPKSCDKTHTCPPCPAPELLGGPSVFLFPPKPKDTLMISRTPEVTCVVVDVSHEDPEVKFNWYVDGVEVHNAKTKPREEQYNSTYRVVSVLTVLHQDWLNGKEYKCKVSNKDYPAPEEKTISKAKGQPREPQVYTLPPSREEMTKNQVSLTCLVKGFYPSDIAVEWESNGQPENNYKTTPPVLDSDGSFFLYSKLTVDKSRWQQGNVFSCSVMHEALHNHYTQKSLSLSPGK
light: DIVMTQSPATLSLSPGERATLSCRSSKSLQNVNGNTYLYWFQQKPGQSPQLLIYRMSNLNSGVPDRFSGSGSGTEFTLTISSLEPEDFAVYYCMQHLEYPITFGAGTKLEIKRTVAAPSVFIFPPSDEQLKSGTASVVCLLNNFYPREAKVQWKVDNALQSGNSQESVTEQDSKDSTYSLSSTLTLSKADYEKHKVYACEVTHQGLSSPVTKSFNRGEC
notes: HuAM4G7 IgG1 Fc variant
B2: G236I (antibody, human IgG1, kappa)
heavy: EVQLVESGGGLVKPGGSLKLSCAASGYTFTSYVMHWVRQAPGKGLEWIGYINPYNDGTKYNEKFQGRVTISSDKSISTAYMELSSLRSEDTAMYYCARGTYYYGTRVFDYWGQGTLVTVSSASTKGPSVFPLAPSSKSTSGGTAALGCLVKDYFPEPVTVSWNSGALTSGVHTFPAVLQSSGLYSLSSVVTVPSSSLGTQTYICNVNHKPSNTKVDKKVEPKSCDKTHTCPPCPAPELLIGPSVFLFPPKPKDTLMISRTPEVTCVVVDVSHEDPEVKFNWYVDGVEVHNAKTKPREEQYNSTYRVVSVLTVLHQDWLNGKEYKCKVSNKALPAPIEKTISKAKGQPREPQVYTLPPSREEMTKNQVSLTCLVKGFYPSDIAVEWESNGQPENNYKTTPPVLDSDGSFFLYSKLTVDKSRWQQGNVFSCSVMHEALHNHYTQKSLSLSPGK
light: B1 light
notes: HuAM4G7 IgG1 Fc variant
B3: A330S (antibody, human IgG1, kappa)
heavy: not shown
light: B1 light
notes: HuAM4G7 IgG1 Fc variant
B4: G236S/G237A (antibody, human IgG1, kappa)
heavy: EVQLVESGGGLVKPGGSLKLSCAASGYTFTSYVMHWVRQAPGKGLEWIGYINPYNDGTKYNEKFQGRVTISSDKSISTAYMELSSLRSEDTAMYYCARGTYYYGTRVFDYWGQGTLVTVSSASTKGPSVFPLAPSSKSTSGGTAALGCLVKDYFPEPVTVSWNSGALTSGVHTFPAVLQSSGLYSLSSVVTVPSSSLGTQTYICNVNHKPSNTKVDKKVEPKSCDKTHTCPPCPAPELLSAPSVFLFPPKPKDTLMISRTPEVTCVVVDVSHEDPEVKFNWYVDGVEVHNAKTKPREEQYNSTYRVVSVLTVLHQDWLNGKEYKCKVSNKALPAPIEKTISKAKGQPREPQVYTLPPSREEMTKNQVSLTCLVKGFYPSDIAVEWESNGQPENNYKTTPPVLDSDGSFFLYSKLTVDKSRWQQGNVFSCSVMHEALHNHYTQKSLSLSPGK
light: B1 light
notes: HuAM4G7 IgG1 Fc variant
B5: A330K (antibody, human IgG1, kappa)
heavy: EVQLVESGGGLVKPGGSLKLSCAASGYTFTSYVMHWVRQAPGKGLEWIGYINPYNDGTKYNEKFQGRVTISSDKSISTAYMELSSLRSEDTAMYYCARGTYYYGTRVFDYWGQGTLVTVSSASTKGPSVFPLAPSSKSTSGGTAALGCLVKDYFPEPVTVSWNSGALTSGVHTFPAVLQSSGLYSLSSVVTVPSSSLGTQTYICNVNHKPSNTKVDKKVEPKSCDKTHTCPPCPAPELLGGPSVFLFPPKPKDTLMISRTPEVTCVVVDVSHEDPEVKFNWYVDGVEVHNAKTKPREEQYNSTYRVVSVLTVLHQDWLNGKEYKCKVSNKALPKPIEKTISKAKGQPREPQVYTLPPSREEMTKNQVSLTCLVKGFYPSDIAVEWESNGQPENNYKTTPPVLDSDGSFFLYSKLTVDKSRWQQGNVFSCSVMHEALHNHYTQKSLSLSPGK
light: B1 light
notes: HuAM4G7 IgG1 Fc variant
B6: G237H (antibody, human IgG1, kappa)
heavy: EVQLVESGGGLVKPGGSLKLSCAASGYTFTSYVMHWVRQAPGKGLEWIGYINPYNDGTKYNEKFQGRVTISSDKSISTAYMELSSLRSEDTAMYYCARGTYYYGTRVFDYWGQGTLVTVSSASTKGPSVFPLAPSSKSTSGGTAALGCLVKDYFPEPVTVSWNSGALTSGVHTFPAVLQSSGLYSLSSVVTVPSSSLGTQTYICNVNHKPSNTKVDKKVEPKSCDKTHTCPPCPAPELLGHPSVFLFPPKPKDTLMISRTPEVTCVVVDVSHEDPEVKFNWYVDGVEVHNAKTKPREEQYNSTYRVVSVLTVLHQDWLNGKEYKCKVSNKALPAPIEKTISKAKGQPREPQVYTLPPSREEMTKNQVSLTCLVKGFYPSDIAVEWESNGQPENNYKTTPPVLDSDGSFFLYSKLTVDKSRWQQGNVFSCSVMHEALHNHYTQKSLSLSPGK
light: B1 light
notes: HuAM4G7 IgG1 Fc variant
B7: G236L (antibody, human IgG1, kappa)
heavy: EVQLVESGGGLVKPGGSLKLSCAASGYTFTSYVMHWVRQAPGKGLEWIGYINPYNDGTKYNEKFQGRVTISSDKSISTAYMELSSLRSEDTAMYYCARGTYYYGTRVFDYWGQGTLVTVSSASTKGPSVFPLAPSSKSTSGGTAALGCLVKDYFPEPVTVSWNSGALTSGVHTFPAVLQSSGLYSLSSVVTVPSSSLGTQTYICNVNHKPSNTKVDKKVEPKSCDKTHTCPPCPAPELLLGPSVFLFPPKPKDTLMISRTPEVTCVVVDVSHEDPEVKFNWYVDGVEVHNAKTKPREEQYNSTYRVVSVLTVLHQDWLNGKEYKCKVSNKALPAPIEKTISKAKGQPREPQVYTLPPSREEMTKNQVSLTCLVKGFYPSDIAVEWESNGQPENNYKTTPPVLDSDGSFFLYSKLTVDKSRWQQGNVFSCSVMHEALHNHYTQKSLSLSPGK
light: B1 light
notes: HuAM4G7 IgG1 Fc variant
B8: H268D/A327D (antibody, human IgG1, kappa)
heavy: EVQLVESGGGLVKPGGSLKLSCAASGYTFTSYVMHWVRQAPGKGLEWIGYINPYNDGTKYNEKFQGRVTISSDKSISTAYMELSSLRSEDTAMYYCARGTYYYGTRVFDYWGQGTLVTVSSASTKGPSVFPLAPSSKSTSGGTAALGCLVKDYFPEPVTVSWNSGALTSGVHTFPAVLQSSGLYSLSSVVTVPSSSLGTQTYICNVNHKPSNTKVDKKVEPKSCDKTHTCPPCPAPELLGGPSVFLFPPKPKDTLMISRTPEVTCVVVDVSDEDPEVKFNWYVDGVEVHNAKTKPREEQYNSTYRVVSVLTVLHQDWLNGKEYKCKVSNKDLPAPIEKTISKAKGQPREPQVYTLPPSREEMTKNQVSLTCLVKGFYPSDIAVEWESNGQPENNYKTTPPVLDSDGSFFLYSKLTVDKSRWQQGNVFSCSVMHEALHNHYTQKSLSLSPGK
light: B1 light
notes: HuAM4G7 IgG1 Fc variant
B9: A330D (antibody, human IgG1, kappa)
heavy: not shown
light: B1 light
notes: HuAM4G7 IgG1 Fc variant
B10: G236Y (antibody, human IgG1, kappa)
heavy: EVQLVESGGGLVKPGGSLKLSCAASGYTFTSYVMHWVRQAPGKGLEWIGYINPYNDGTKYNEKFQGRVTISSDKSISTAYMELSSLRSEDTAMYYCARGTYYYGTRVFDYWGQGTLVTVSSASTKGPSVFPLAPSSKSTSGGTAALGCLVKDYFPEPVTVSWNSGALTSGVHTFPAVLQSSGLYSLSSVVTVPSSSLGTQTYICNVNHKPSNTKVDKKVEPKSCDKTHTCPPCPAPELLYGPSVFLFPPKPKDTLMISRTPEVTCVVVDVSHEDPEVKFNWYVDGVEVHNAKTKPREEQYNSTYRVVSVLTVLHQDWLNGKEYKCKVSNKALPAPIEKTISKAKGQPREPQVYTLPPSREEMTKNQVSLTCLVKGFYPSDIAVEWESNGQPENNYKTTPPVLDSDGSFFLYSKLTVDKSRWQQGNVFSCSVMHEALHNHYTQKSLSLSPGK
light: B1 light
notes: HuAM4G7 IgG1 Fc variant
B11: A327L (antibody, human IgG1, kappa)
heavy: not shown
light: B1 light
notes: HuAM4G7 IgG1 Fc variant
B12: A330H (antibody, human IgG1, kappa)
heavy: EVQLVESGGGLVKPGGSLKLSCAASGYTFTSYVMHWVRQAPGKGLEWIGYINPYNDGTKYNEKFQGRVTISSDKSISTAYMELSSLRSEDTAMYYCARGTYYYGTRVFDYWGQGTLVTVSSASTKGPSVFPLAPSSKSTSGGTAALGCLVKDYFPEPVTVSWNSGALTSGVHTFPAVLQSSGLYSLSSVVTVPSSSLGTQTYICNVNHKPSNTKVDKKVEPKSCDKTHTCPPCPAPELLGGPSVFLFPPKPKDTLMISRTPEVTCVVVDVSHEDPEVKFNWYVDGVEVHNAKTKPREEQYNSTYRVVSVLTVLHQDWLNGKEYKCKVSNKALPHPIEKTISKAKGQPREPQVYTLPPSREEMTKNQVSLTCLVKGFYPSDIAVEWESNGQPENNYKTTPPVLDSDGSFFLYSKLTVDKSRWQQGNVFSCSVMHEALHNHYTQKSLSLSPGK
light: B1 light
notes: HuAM4G7 IgG1 Fc variant
B13: G236D/H268D (antibody, human IgG1, kappa)
heavy: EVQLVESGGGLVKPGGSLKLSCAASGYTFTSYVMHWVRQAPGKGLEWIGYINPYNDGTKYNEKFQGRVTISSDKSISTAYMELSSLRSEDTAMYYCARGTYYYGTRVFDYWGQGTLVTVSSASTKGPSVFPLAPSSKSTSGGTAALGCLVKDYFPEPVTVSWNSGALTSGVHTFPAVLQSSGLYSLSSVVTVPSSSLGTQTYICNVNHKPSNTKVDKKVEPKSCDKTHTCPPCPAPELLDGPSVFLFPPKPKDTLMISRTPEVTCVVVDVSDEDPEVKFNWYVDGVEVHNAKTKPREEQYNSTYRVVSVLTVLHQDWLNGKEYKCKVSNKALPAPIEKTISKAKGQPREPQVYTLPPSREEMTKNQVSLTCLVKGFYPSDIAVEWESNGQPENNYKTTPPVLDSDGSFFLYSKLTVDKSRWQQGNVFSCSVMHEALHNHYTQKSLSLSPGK
light: B1 light
notes: HuAM4G7 IgG1 Fc variant
B14: G236A/G237A (antibody, human IgG1, kappa)
heavy: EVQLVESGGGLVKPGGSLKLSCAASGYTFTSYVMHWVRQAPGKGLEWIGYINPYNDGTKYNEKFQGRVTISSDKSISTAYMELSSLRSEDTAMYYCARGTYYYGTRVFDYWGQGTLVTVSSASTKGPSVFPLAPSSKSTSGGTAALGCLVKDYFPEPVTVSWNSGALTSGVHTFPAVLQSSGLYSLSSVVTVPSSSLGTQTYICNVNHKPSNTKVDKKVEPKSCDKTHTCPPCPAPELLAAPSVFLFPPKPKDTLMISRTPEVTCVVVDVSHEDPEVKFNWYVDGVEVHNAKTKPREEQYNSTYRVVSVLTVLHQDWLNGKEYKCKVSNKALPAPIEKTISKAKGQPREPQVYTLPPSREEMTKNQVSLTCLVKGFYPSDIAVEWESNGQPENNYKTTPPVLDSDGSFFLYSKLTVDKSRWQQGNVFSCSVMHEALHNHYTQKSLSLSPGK
light: B1 light
notes: HuAM4G7 IgG1 Fc variant
B15: G237L (antibody, human IgG1, kappa)
heavy: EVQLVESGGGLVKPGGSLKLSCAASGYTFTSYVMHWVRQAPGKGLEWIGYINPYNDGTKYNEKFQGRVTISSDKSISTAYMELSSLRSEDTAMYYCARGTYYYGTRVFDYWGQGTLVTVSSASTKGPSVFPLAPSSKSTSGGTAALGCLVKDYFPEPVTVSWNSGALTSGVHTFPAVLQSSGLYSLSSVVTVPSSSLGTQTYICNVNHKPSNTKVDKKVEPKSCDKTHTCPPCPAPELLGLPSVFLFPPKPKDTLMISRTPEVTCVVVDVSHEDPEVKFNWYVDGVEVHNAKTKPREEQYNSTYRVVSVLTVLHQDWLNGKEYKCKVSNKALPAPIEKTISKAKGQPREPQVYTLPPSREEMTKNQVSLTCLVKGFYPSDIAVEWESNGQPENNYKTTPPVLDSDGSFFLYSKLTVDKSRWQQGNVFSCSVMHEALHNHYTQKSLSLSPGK
light: B1 light
notes: HuAM4G7 IgG1 Fc variant

These binders were tested against T1, human FcγRIIb receptor protein (R&D …) (assay: SPR (Biacore)).
Procedure: Variants were screened for receptor affinity using Biacore™ technology, also referred to as Biacore herein, a surface plasmon resonance (SPR) based technology for studying biomolecular interactions in real time. SPR measurements were performed using a Biacore 3000 instrument (Biacore, Piscataway, N.J.). A protein A/G (Pierce Biotechnology) CM5 biosensor chip (Biacore) was generated using a standard primary amine coupling protocol. All measurements were performed using HBS-EP buffer (10 mM HEPES pH 7.4, 0.15 M NaCl, 3 mM EDTA, 0.005% vol/vol surfactant P20, Biacore). Antibodies at 20 nM or 50 nM in HBS-EP buffer were immobilized on the protein A/G surface and FcγRs were injected. After each cycle, the surface was regenerated by injecting glycine buffer (10 mM, pH 1.5). Data were processed by zeroing time and response before the injection of FcγR and by subtracting appropriate nonspecific signals (response of reference channel and injection of running buffer). Kinetic analyses were performed by global fitting of binding data with a 1:1 Langmuir binding model using BIAevaluation software (Biacore).

Row | Fold FcγRIIb [fold] | binding result | Binder
1 | 2.31 | – | B1
2 | – | no binding | B2
3 | 0.0635 | – | B3
4 | 0.0797 | – | B4
5 | 1.55 | – | B5
6 | – | no binding | B6
7 | – | no binding | B7
8 | 7.68 | – | B8
9 | – | no binding | B9
10 | – | no binding | B10
11 | – | no binding | B11
12 | – | no binding | B12
13 | 11.6 | – | B13
14 | 0.0578 | – | B14
15 | – | no binding | B15
